Data reported in patent US20220241413A1, “COMBINATION THERAPIES USING CD-38 ANTIBODIES” (Takeda Pharmaceutical Company Limited, priority 2019, published 2022).

How the values were obtained:
[1] = AB79-1002 phase 1b study, AB79 with LenDex or VRd in NDMM: safety; format: in vivo
From the text: This is a Phase 1b, open-label, multicenter study to evaluate the safety, efficacy, tolerability, and pharmacokinetics (PK) of AB79 when added to 1 of 2 standard backbone regimens (lenalidomide plus dexamethasone [LenDex] or bortezomib [Velcade] plus lenalidomide and dexamethasone [VRd]) in adult patients with newly diagnosed multiple myeloma (NDMM) for whom stem cell transplantation (SCT) is not planned as initial therapy. The dose and schedule for the backbone regimens (LenDex and VRd) are given in accordance with product labeling or standard medical practice. Treatment cycles are 28 days until disease progression (PD) or unacceptable toxicity occurs. Treatment may be discontinued for other reasons listed below. AB79 is supplied by the sponsor. Bortezomib, dexamethasone, and lenalidomide are standard-of-care agents that are supplied from commercial sources.
300 mg of AB79 is administered subcutaneously once weekly for 8 weeks (8 doses), once every 2 weeks for 16 weeks (8 doses), and once every 4 weeks thereafter until PD (in combination with backbone therapy). Backbone therapies (LenDex or VRd) are dosed in accordance with product labeling/local institutional practices. VRd is given with bortezomib weekly×3 weeks and LenDex in a standard 28 day cycle. Patients are evaluated from first dose of AB79 until 30 days after PD or until protocol-defined treatment discontinuation criteria are met.
Changes in clinical laboratory parameters (standard hematology and chemistry), vital sign, electrocardiogram (ECG) monitoring, and Eastern Cooperative Oncology Group (ECOG) performance status that are judged by the investigator as clinically significant are recorded both on the source documentation and in the electronic case report (eCRF) as an AE. Toxicities that occur during the DLT evaluation period are used for the purposes of defining DLT and for subsequent cohort expansion or dose modification decisions. DLTs are based on AB79-related toxicities.
The study was designed to determine the recommended phase 2 dose (RP2D) and to provide a preliminary assessment of the AB79 combinations against NDMM. Parameters such as safety, tolerability, pharmacokinetics (PK), pharmacodynamics (PD), and disease response were assessed.

cynomolgus CD38 = cynomolgus CD38 (Macaca fascicularis, UniProt Q5VAN0); assay: Binding to cynomolgus CD38
cynomolgus CD38, sequence (Q5VAN0 whole entry): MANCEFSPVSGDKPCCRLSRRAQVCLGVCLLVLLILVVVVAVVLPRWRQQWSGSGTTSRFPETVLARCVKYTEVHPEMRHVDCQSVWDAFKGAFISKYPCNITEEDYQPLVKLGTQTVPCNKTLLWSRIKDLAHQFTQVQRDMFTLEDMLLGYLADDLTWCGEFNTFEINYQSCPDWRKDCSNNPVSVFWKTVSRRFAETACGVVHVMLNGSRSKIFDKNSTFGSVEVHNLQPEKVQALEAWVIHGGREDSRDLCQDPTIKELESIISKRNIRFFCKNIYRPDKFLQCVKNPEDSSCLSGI
From the text: Other Morphosys antibodies targeting CD38 are known (see, e.g., WO 2006/125640, which discloses four human antibodies: MOR03077, MOR03079, MOR03080, and MOR03100 and two murine antibodies: OKT10 and IB4). […] Moreover, the prior art antibodies have poor ADCC as well as CDC activity.

[2] = AB79-1501 study, AB79 monotherapy SC in RRMM: safety; format: in vivo
From the text: Patients eligible for study enrollment are refractory or intolerant to at least one PI and at least one IMiD, and have received either ≥3 prior therapies or ≥2 prior therapies, if one of those therapies included a combination of a PI and an IMiD. In the phase 1b dose-escalation part of the study, patients who were previously exposed to an anti-CD38 agent are eligible; however, this criterion is not required. In the phase 2a expansion part of the study, patients were also refractory to at least one anti-CD38 monoclonal therapy at any time during prior treatment. The study was designed to evaluate the safety and tolerability of subcutaneously administered AB79 monotherapy in patients with RRMM, to determine the recommended phase 2 dose (RP2D), and to provide a preliminary assessment of its single-agent activity against RRMM, including in patients who are refractory to daratumumab. Parameters such as safety, tolerability, pharmacokinetics (PK), pharmacodynamics, and disease response were assessed.
Clinical safety data includes that from patients who received a single dose and from patients who received multiple doses in multiple cycles followed by treatment-free periods. Based on the mechanism of action (MOA) of AB79 and the subcutaneous (SC) route of administration, potential adverse events (AEs) included systemic reaction (e.g., cytokine release syndrome (CRS) and hypersensitivity reaction), hematologic effects (e.g., reduced platelet, lymphocyte, neutrophil, and RBC counts), infections (e.g., bacterial and/or viral infections secondary to immune suppression), and injection site reaction (i.e., erythema or tenderness).

[3] = AB79 300 or 600 mg with LenDex or VRd, 10 patients enrolled
[4] = monotherapy SC, total population, 45-600 mg

Q: What does the source list for “AB79: anti-CD38 monoclonal IgG1 antibody; heavy chain SEQ ID NO:11, light chain SEQ ID NO:12”?
A: TEAE regardless of causality: abdominal pain [1, 3]: 2 patients; TEAE regardless of causality: chills [1, 3]: 2 patients; TEAE regardless of causality: decreased lymphocyte count [1, 3]: 5 patients; TEAE regardless of causality: diarrhea [1, 3]: 3 patients; TEAE regardless of causality: dysgeusia [1, 3]: 2 patients; TEAE regardless of causality: fatigue [1, 3]: 2 patients; TEAE regardless of causality: muscle spasms [1, 3]: 2 patients; TEAE regardless of causality: nausea [1, 3]: 2 patients; TEAE regardless of causality: neutropenia [1, 3]: 2 patients; TEAE regardless of causality: peripheral edema [1, 3]: 2 patients; TEAE regardless of causality: sinusitis [1, 3]: 2 patients; dose-limiting toxicities (DLTs) ([1]; AB79 with LenDex or VRd): No DLTs; drug-related serious AEs, AEs that resulted in any drug discontinuation, or on-study deaths ([1]; AB79 with LenDex or VRd): no; binding to cynomolgus CD38 (cynomolgus CD38): binds; infusion-related reactions (IRRs) ([2]; SC, dosed up to 600 mg): have not been observed; patients with AEs that led to study discontinuation ([2]; both reported as not related to AB79): Two; injection site reactions ([2]; monotherapy SC): < 0.25%; share of AEs overall that were Grade 1 or 2 ([2]; monotherapy SC): 55%; systemic reactions ([2]; monotherapy SC): no systemic reactions; TEAE regardless of causality: abdominal distension [2, 4]: 12%; TEAE regardless of causality: anemia [2, 4]: 15%; TEAE regardless of causality: back pain [2, 4]: 12%; TEAE regardless of causality: cough [2, 4]: 10%; TEAE regardless of causality: diarrhea [2, 4]: 17%; TEAE regardless of causality: fatigue [2, 4]: 27%; TEAE regardless of causality: headache [2, 4]: 15%; TEAE regardless of causality: hypertension [2, 4]: 12%; TEAE regardless of causality: insomnia [2, 4]: 22%; TEAE regardless of causality: nausea [2, 4]: 17%; TEAE regardless of causality: neutropenia [2, 4]: 12%; TEAE regardless of causality: pneumonia [2, 4]: 10%; TEAE regardless of causality: upper respiratory infection [2, 4]: 27%; dose-limiting toxicities (DLTs) ([2]; monotherapy cohorts): no DLTs; maximum tolerated dose (MTD) ([2]; monotherapy cohorts): has not been identified; drug-related SAEs (Diverticulitis) ([2]; patient with past medical history of diverticulitis): One
